From patent US20240131153A1 (ABCENTRA, published 2024)

Target: oxidized LDL (oxLDL) (UniProt P04114 28-4563, limits assumed, oxidized LDL; kind of oxidation of the preparation used in the assay not stated)
Test: cell-based or functional assay

Chain of oxidized LDL (oxLDL) (P04114 28-4563 limits assumed): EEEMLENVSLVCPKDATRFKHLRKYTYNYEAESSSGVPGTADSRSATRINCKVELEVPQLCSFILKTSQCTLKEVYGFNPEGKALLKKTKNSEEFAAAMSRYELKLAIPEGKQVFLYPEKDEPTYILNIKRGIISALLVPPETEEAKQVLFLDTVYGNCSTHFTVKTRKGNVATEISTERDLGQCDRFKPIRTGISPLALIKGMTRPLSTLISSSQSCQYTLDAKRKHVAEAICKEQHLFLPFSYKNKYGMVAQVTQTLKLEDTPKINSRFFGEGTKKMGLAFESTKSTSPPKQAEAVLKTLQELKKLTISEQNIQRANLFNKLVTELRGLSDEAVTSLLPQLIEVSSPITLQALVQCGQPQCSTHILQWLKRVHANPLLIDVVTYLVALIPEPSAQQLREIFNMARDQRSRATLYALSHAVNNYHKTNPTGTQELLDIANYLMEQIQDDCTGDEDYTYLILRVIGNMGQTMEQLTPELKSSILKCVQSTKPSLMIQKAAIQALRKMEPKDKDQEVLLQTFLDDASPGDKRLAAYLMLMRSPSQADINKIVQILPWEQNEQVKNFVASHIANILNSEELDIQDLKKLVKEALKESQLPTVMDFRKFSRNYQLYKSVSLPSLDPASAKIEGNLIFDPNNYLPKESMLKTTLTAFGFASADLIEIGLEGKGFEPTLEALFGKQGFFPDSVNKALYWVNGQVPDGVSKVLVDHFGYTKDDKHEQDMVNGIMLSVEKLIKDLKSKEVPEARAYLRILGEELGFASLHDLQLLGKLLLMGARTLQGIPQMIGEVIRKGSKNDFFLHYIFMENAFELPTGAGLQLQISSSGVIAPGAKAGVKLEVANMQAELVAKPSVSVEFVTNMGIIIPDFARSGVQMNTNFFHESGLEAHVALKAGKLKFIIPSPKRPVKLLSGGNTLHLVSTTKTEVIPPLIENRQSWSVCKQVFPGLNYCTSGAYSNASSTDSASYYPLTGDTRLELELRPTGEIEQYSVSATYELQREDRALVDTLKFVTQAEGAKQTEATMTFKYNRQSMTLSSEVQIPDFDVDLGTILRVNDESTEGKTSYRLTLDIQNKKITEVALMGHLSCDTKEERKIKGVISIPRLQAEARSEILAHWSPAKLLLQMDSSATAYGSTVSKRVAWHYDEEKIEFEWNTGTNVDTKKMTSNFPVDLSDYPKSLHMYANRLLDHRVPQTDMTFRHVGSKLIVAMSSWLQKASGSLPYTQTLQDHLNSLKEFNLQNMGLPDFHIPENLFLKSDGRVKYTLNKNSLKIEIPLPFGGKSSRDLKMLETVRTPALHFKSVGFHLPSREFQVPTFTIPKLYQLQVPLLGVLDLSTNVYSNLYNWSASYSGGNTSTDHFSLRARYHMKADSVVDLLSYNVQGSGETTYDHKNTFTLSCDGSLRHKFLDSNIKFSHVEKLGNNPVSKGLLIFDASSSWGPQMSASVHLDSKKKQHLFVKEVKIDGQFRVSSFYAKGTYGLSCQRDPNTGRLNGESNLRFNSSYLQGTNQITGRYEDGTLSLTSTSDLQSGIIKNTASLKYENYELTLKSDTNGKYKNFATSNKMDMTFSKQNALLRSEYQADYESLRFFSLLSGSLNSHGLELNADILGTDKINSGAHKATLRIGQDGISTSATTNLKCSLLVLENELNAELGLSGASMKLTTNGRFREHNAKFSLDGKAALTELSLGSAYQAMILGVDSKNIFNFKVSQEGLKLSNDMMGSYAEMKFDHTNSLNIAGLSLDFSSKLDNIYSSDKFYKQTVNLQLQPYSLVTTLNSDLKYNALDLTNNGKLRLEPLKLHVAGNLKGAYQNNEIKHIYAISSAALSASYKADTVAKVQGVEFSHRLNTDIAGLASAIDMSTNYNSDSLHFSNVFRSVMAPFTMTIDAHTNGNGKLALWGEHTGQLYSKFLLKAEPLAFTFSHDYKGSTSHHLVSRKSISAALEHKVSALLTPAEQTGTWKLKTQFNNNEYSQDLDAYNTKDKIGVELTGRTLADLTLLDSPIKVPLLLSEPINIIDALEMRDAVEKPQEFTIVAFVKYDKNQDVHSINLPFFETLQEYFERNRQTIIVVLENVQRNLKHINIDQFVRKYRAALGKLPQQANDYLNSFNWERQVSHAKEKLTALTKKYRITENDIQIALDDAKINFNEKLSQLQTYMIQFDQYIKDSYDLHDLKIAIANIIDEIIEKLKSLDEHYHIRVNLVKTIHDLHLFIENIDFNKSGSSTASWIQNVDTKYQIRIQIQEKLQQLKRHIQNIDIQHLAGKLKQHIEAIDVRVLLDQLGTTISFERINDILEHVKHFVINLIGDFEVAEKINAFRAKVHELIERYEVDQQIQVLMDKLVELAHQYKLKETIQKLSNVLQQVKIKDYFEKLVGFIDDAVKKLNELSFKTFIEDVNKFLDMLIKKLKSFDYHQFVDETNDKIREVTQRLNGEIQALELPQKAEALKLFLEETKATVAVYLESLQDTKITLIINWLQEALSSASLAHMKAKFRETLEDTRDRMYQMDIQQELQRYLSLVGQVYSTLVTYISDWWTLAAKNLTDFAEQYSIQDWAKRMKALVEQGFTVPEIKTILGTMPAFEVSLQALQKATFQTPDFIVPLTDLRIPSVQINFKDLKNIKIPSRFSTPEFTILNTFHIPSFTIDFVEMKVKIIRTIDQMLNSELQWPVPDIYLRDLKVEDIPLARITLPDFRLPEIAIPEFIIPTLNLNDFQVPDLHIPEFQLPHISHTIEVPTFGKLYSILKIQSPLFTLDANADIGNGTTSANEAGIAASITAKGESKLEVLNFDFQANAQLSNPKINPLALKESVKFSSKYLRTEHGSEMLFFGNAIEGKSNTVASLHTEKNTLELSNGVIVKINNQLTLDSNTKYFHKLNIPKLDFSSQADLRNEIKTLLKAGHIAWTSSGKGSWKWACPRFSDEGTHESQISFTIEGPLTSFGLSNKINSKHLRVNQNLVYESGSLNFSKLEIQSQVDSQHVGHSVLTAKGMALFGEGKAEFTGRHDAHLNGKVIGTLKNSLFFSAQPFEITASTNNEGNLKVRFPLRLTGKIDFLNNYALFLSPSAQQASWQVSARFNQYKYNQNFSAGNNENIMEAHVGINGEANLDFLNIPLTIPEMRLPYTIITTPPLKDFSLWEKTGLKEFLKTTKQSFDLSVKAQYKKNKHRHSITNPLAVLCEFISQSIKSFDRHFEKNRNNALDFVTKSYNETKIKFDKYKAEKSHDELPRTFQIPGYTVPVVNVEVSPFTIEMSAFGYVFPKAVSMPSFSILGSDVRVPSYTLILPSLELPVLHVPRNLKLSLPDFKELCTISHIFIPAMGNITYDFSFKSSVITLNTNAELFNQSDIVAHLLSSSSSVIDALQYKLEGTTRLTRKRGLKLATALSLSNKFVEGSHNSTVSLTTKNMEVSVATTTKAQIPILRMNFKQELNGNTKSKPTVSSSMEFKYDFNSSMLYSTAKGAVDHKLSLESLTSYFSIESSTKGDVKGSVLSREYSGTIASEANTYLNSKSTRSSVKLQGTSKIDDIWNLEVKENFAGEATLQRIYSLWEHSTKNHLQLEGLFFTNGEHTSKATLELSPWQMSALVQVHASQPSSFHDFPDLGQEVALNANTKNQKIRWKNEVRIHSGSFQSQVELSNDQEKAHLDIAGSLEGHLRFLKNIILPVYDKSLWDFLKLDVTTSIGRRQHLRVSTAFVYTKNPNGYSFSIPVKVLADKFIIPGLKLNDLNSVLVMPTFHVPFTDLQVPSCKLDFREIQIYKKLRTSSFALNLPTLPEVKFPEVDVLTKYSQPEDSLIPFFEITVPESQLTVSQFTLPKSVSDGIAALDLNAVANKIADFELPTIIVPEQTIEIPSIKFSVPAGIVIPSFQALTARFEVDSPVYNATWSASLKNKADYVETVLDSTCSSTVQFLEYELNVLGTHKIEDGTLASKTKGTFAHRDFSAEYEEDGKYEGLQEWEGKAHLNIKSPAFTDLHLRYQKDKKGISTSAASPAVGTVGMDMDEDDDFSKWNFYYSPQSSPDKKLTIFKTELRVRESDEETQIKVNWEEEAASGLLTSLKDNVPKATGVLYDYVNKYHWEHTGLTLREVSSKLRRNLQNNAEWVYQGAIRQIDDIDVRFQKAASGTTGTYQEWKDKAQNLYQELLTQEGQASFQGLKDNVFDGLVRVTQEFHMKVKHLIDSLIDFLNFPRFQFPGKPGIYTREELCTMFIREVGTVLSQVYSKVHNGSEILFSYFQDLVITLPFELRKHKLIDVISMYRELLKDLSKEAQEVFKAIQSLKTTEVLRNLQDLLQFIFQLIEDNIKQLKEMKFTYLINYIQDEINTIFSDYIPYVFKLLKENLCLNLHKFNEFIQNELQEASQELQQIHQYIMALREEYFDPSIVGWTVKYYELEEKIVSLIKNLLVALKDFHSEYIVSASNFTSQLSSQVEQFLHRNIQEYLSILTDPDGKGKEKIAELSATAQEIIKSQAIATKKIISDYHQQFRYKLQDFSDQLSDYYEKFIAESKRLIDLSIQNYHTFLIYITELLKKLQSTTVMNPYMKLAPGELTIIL

B1: orticumab (antibody, human IgG1, lambda, V domains shown)
VH: EVQLLESGGGLVQPGGSLRLSCAASGFTFSNAWMSWVRQAPGKGLEWVSSISVGGHRTYYADSVKGRSTISRDNSKNTLYLQMNSLRAEDTAVYYCARIRVGPSGGAFDYWGQGTLVTVSS
VL: QSVLTQPPSASGTPGQRVTISCSGSNTNIGKNYVSWYQQLPGTAPKLLIYANSNRPSGVPDRFSGSKSGTSASLAISGLRSEDEADYYCASWDASLNGWVFGGGTKLTVLG
In the case of B1, the “IC50 for MCP-1 inhibition” value is reported as roughly 10 nM.
